{"source": "patent US7795390B2", "about": "“Biological substance nesfatin and its related substances and uses thereof” (Teijin Pharma Limited, priority 2005, dated 2010)", "molecules": {"B1": {"name": "nesfatin-1: 82-residue peptide, amino acid Nos. 25 to 106 of nesfatin (SEQ ID NO: 15), solid-phase synthesis (peptide, listed as Rattus norvegicus)", "chain": "VPIDVDKTKVHNVEPVESARIEPPDTGLYYDEYLKQVIEVLETDPHFREKLQKADIEEIRSGRLSQELDLVSHKVRTRLDEL"}}, "key": {"Agouti-yellow mice": {"tested_on": "Agouti-yellow mice", "assay": "Intraperitoneal administration of nesfatin-1 to Agouti-yellow mice, food intake", "type": "in vivo, mouse", "details": "nesfatin-1 (10 pmol) ip, 0-3 hours", "excerpt": "In the experiment on the animal model of obesity, C57BL/6J mice were used as the control group and Agouti-yellow mice were used as the animal model of obesity, and these animals were purchased from Nippon Charles River (Jackson Lab.). The housing condition and the week age of the mice used were similar to those for the ICR mice, whereas individuals weighing 25-28 g for the control group mice and individuals weighing 31-38 g for the Agouti-yellow mice were selected and used. […] Other conditions were similar to those in the above.\n(§1) Each mouse that received administration was placed in an individual cage, and during 0-3 hours after the administration the weight decreased of the pellet food was measured to determine the amount of food intake. For testing of significant difference, analysis of variance was used."}, "Zucker fa/fa rats": {"tested_on": "Zucker fa/fa rats", "assay": "nesfatin-1 administration into the third ventricle of Zucker fa/fa rats, food intake", "type": "in vivo, rat", "details": "recombinant mouse nesfatin-1 5 pmol", "procedure": "(§2) As rats, 8 week-old male Zucker fa/fa (Zucker) rats and Zucker +/+(Lean) rats as the control animal were purchased from Nippon Charles River, and were housed in a cycle of 12 hours of the light period from 6 a.m. to 6 p.m. and 12 hours of the dark period from 6 p.m. to 6 a.m. the next morning and fed a powder food (Nippon Clea, CE-2), and kept at 22° C., and throughout the experiment period, a similar condition was continued in housing. After preliminary housing of the purchased rats for over one week, individuals weighing 200-250 g were selected from among 9 to 10 week-old individuals.\n(§3) The sample used for administration was one in which the recombinant mouse nesfatin-1 prepared in Working Example 16 was dissolved to 5 pmol in 5 μl of PBS, and as the control sample physiological saline (Saline) was used. Five μl of the samples prepared were administered into the third ventricle of each rat for the group of five each of Zucker rats and the Lean rats per group (the Zucker/nesfatin-1 group, the Lean/nesfatin-1 group, the Zucker/Saline group, the Lean/Saline group). […]\n(§4) After intraventricular administration, the amount of food intake was determined by measuring the amount decreased of the powder food for each rat during 0-1 hour, 1-3 hours and 3-6 hours. […]"}, "Zucker +/+ (Lean) rats": {"tested_on": "Zucker +/+ (Lean) rats", "assay": "nesfatin-1 administration into the third ventricle of Zucker +/+ (Lean) rats, food intake", "type": "in vivo, rat", "details": "recombinant mouse nesfatin-1 5 pmol", "procedure": "as §2, §3, §4"}, "ICR mice": {"tested_on": "ICR mice", "assay": "Intraperitoneal administration of nesfatin-1 to ICR mice, food intake", "type": "in vivo, mouse", "details": "0-3 hours", "procedure": "The experimental animal was 7 week-old male ICR mice purchased from Japan SLC, Inc., and were housed after purchase in a cycle of 12 hours of the light period from 6 a.m. to 6 p.m. and 12 hours of the dark period from 6 p.m. to 6 a.m. the next morning with free access to a pellet food (Nippon Clea, CE-2), kept at 22° C., and housing was continued in a similar condition during the experiment period. The mice purchased were subjected to preliminary housing for over one week, individuals weighing 35-40 g were selected among 8 to 9 week-old individuals and were used in the experiment.\nThe sample used in the administration was the recombinant mouse nesfatin-1 prepared in Working Example 16 dissolved in 200 μl of physiological saline so as to contain 2 nmol, 10 nmol or 50 nmol, and as the control sample, physiological saline (Saline) alone was used. Using a tuberculin syringe equipped with a 25G needle, 200 μl each of the sample was administered once into the abdominal cavity of each mouse (5 animals per group), and the time of administration was immediately before the start (6 p.m.) of the dark period.\nas §1"}, "Wistar rats": {"tested_on": "Wistar rats", "assay": "Administration of nesfatin-1, nesfatin-2, nesfatin-3, nesfatin-2/3 into the third ventricle, amount of food intake", "type": "in vivo, rat", "procedure": "Samples used for intracerebral administration were PBS alone (vehicle group), or nesfatin-1, nesfatin-2, nesfatin-3 or nesfatin-2/3 prepared in Working Example 10 each dissolved in PBS, and 25 pmol was administered per individual into the third ventricle immediately before the dark period. Rats used were Wistar rats (purchased from Nippon SLC) and were housed as in Working Example 6, and among 8-9 week-old male Wistar rats, those individuals weighing 200-250 g were selected and used (N=5). The technique of intraventricular administration and the measurement of the amount of food intake in rats were carried out in a method similar to those in Working Example 6. In the measurement of the amount of food intake, the reduced amount of food at 1 hour after administration (0-1 hr) and 2 hours after administration (1-3 hrs) was determined as food intake.\nIn the same condition above, 1, 5 or 25 pmol of nesfatin-1 as a sample was administered per rat individual into the third ventricle immediately before the dark period. In this experiment, the amount of food intake was determined at 1 hour after administration (0-1 hr).\nThe experimental condition was similar to that in Working Example 12, and 5 pmol of nesfatin-1 was administered into the third ventricle of the rat brain immediately before the start of the dark period, the amount decreased of the food (the amount of food intake) during 1 hour immediately after administration (0-1 hr), during 2 hours from 1 hour after the administration (1-3 hr), during 3 hours from 3 hours after the administration (3-6 hr), and during 6 hours from 6 hours after the administration (6-12 hr) was measured as the amount of food intake. As the control group, the amount of food intake by individuals that received physiological saline alone was measured.\nThe experimental condition was similar to that in Working Example 12, and for a group that received 5 pmol of nesfatin-1 alone into the third ventricle of the rat brain immediately before the start of the dark period and a group that received 5 pmol of nesfatin-1 and 8 μg of anti-nesfatin-1 antibody (nesfatin-1 IgG), the amount of food intake for 1 hour after administration was measured and compared to that for the control group (physiological saline alone was administered). Also, for a group that received only leptin (Rat leptin: R & D Systems, 598-LP-01M) (1 μg) which is known to have an activity of suppressing food intake by intraventricular administration and a group that received leptin and anti-nesfatin-1 antibody, its effect on food intake was also studied."}, "[1]": {"details": "0-1 hour and 1-3 hours, P<0.001 vs Saline"}}, "data": [{"molecule": "B1", "values": [{"measurement": "amount of food intake", "setting": "Agouti-yellow mice", "value": "significantly decreased"}, {"measurement": "amount of food intake", "setting": "Zucker fa/fa rats; [1]", "value": "significant reduction"}, {"measurement": "amount of food intake", "setting": "Zucker fa/fa rats; 3-6 hours, P<0.05", "value": "significant reduction"}, {"measurement": "amount of food intake", "setting": "Zucker +/+ (Lean) rats; [1]", "value": "decreased"}, {"measurement": "amount of food intake", "setting": "Zucker +/+ (Lean) rats; 3-6 hours", "value": "No difference"}, {"measurement": "amount of food intake", "setting": "ICR mice; recombinant mouse nesfatin-1 2 nmol per mouse ip, vs Saline", "value": "decreases in the amount of food intake"}, {"measurement": "amount of food intake", "setting": "ICR mice; recombinant mouse nesfatin-1 10 nmol per mouse ip, p<0.05", "value": "statistically significant decreases in the amount of food intake"}, {"measurement": "amount of food intake", "setting": "ICR mice; recombinant mouse nesfatin-1 50 nmol per mouse ip, p<0.005", "value": "statistically significant decreases in the amount of food intake"}, {"measurement": "amount of food intake", "setting": "Wistar rats; 5 pmol into the third ventricle, 0-1 hr, 1-3 hr and 3-6 hr, p<0.01 vs control", "value": "Significant decreases in the amount of food intake"}, {"measurement": "amount of food intake", "setting": "Wistar rats; 5 pmol into the third ventricle, 6-12 hr, p<0.01 vs control", "value": "an increase in the amount of food intake"}, {"measurement": "amount of food intake", "setting": "Wistar rats; 5 pmol or 25 pmol intraventricular, 0-1 hr", "value": "significant decreased amount of food intake"}, {"measurement": "amount of food intake", "setting": "Wistar rats; 25 pmol into the third ventricle before dark period, 0-1 hr and 1-3 hr, vs control", "value": "marked effect on the suppression of feeding"}, {"measurement": "amount of food intake", "setting": "Wistar rats; 1, 5 or 25 pmol per rat intraventricular, 0-1 hr, vs saline", "value": "decreased amount of food intake, with the increased amount of the administered nesfatin-1"}]}]}
